From PMC9503769, “Development and Evaluation of a Peptide Heterodimeric Tracer Targeting CXCR4 and Integrin αvβ3 for Pancreatic Cancer Imaging” (Pharmaceutics, 2022)
Where a SMILES comes first, the peptide text is derived from it. [ ]: non-standard residue; d: D form. The star is where a group is joined. X1 = O=C(O)CN1CCN(CC(=O)O)CC(Cc2ccc(NC(=S)*)cc2)N(CC(=O)O)CC1; 2Nal = N[C@@H](Cc1ccc2ccccc2c1)C(=O)O; dNMeK = CN[C@H](CCCCN)C(=O)O

Legend:
[1] = type: physicochemical
Experimental: ^68Ga-yG5-RGD, ^68Ga-yG5, or ^68Ga-RGD (740 kBq each) were separately added to a mixture of 1.0 mL n-octanol and 1.0 mL PBS, and then the mixtures were thoroughly vortexed for 5 min. Each sample was then centrifuged at 8000 rpm for 4 min. Each sample (100 μL) in organic phase and aqueous phase was collected separately in tubes, 5 tubes for each phase. Radioactive counts per tube of samples were measured by gamma counter, and logP values were calculated by the following formula: logP = log10 (counts in n-octanol/counts in PBS).

in vivo = assay: in vivo; set-up: species or system BALB/c nude mice; settings: female, BALB/c nude, mouse, iv, total radioactivity
Experimental: All animal studies were conducted in accordance with the guidelines of the Institutional Animal Care and Use Committee of Tongji Medical College of Huazhong University of Science and Technology (2021-S2875; 1 February 2021). Female BALB/c nude mice (5–6 weeks old) were purchased from Beijing HFK Bioscience Co., Ltd. (Beijing, China) and were raised in a specific pathogen-free barrier system. For subcutaneous tumor xenograft model, 1 × 10^7 cells of BxPC3 or MX-1 in 100 μL PBS were injected into the right flanks of nude mice. Animal models were used for follow-up experiments when tumors reached 8~10 mm in diameter. The group setting was kept consistent with PET/CT scan. Each group of mice (n = 4) was injected via tail vein with probes (5.55~7.4 MBq, 150 μL) or co-injected with probes and blockers (10 mg/kg). Mice were euthanized by cervical dislocation under anesthesia 2 h post-injection. Subsequently, tissues of interest were collected, washed, weighed, and counted by a gamma counter. After decay correction, uptake of tissues was expressed as the percentage of injected dose per gram of tissue (%ID/g).

MX-1 cells = assay: Cell uptake in MX-1 cells (negative control); type: cell-based, human; settings: all time points, all p < 0.001
Experimental: (§1) BxPC3 cells in the logarithmic growth phase were harvested, counted, and seeded onto 24-well plate with 2 × 10^5 cells/well and cultured overnight. The original culture medium was discarded and fresh DMEM (serum and antibiotic-free) was then added to continue culturing for 0.5 h. Subsequently, each well was separately added ^68Ga-yG5-RGD, ^68Ga-yG5, or ^68Ga-RGD (74 kBq/well, 50 μL) and incubated for 30 min, 1 h, and 2 h (three replicate wells/each time point). At the end of incubation, the supernatant and the cell lysate were separately collected and radioactivity was measured by gamma counter. The cell uptake was expressed as the percentage of total applied radioactivity. Cell uptake study experiment was also performed using MX-1 as a control group for ^68Ga-yG5-RGD. The detailed experimental procedure was the same as above.

BxPC3 cells [2] = assay: Cell blocking experiment in BxPC3 cells; type: cell-based, human; settings: co-incubated with 1000-fold molar excess of unlabeled RGD, AMD3100 or AMD3100 + RGD, all p < 0.001
Experimental: BxPC3 was used for cell blocking experiments. One group was taken as a control and added only ^68Ga-yG5-RGD (74 kBq/well, 50 μL, 1 pmol). Other groups were incubated with the blocking agents (AMD3100, RGD, AMD3100 + RGD unlabeled, 1000 pmol/10 μL, and ^68Ga-yG5-RGD (74 kBq/well, 50 μL). The rest of the procedures were carried out as described above.

[3] = type: in vitro ADME, human
Experimental: (§2) The ^68Ga-yG5-RGD (1.85 MBq, 5 μL) or ^68Ga-yG5 (1.85 MBq, 5 μL) was separately added to 300 μL of PBS or normal human fresh serum, incubated for 2 h at 37 °C. After incubation, the PBS sample was subjected to HPLC for radiochemical purity under the conditions described above. An equal volume of anhydrous acetonitrile was added to serum sample, mixed, and then centrifuged at 13,000 g for 10 min to fully precipitate protein. Following this, the supernatant was collected and authenticated by HPLC.

BxPC3 cells [4] = assay: Cell uptake in BxPC3 cells; type: cell-based, human; settings: 74 kBq/well, 30 min, 1 h and 2 h, all p < 0.001, n = 3
Experimental: as §1

[5] = Stability in PBS (radio-HPLC); type: physicochemical; settings: 1.85 MBq in 300 μL, 2 h, 37 °C
Experimental: as §2

Row | SMILES | log P [1] | tissue to tissue ratio at 2 h (in vivo; tumor/blood uptake ratio) | tissue to tissue ratio at 2 h (in vivo; tumor/kidney uptake ratio) | tissue to tissue ratio at 2 h (in vivo; tumor/liver uptake ratio) | tissue to tissue ratio at 2 h (in vivo; tumor/muscle uptake ratio) | cellular uptake in MX-1 cells (MX-1 cells) | cellular uptake in BxPC3 cells with blockers (BxPC3 cells [2]) | metabolic-free Gallium-68 observed [3] | cellular uptake in BxPC3 cells (BxPC3 cells [4]) | proportion of intact tracer [5]
1 | N=C(N)NCCC[C@@H]1NC(=O)[C@H](CCCCNC(=S)Nc2ccc(CC3CN(CC(=O)O)CCN(CC(=O)O)CCN3CC(=O)O)cc2)NC(=O)[C@@H](Cc2ccc(O)cc2)NC(=O)[C@H](CC(=O)O)NC(=O)CNC1=O (some centres unmarked) [^68Ga-RGD, metal not drawn, reference compound] | −3.22 ± 0.02 | 10.8 ± 2.04 | 0.77 ± 0.06 | 0.96 ± 0.15 | 8.61 ± 0.61 | – | – | – | – | –
2 | CN1C(=O)[C@@H](Cc2ccc(O)cc2)NC(=O)CNC(=O)[C@H](Cc2ccc3ccccc3c2)NC(=O)[C@H](CCCNC(=N)N)NC(=O)[C@H]1CCCCNC(=O)C(CCn1nnc2c1CCC1C(CC2)C1COC(=O)NCCOCCOCCOCCOCCC(=O)NCCCC[C@@H]1NC(=O)[C@@H](Cc2ccc(O)cc2)NC(=O)[C@H](CC(=O)O)NC(=O)CNC(=O)[C@H](CCCNC(=N)N)NC1=O)N1CCN(CC(=O)O)CCN(CC(=O)O)CC1 (some centres unmarked) [^68Ga-yG5-RGD, metal not drawn] | −2.47 ± 0.04 | 14.5 ± 0.8 | 0.9 ± 0.29 | 0.46 ± 0.1 | 13.6 ± 0.81 | significantly lower than that of BxPC3 cells | significantly decreased | less than 1% | significantly higher than that of ^68Ga-RGD and ^68Ga-yG5 | greater than 99%
3 | CN1C(=O)[C@@H](Cc2ccc(O)cc2)NC(=O)CNC(=O)[C@H](Cc2ccc3ccccc3c2)NC(=O)[C@H](CCCNC(=N)N)NC(=O)[C@H]1CCCCNC(=S)Nc1ccc(CC2CN(CC(=O)O)CCN(CC(=O)O)CCN2CC(=O)O)cc1 (some centres unmarked) [^68Ga-yG5, metal not drawn] (cyclo([2Nal]G[dY][dNMeK](X1)R)) | −0.35 ± 0.09 | 2.01 ± 0.43 | 0.34 ± 0.06 | 0.13 ± 0.04 | 3.86 ± 1.29 | – | – | – | – | –
